Like-named read-outs stand apart in the source and are kept apart here.
What was measured:
[1] = target: Fatty acid kinase FakA (Staphylococcus aureus), wild type (Staphylococcus aureus); assay: mass photometry
[2] = target: Fatty acid kinase FakA (Staphylococcus aureus), wild type (Staphylococcus aureus); assay: mass photometry; remark: listed apart in the source
[3] = target: Fatty acid kinase FakA (Staphylococcus aureus), wild type (Staphylococcus aureus); assay: SEC-SAXS
[4] = target: His-tagged FakB2 (Staphylococcus aureus) (Staphylococcus aureus); assay: BLI
[5] = target: FakA H282A, H284A (Staphylococcus aureus) (Staphylococcus aureus); assay: mass photometry
[6] = target: FakA H282A, H284A (Staphylococcus aureus) (Staphylococcus aureus); assay: mass photometry; remark: listed apart in the source

| Substance | percent of the protein in the dimer peak [1] | percent of the protein in the dimer peak [2] | stoichiometry N [2] | stoichiometry N [3] | Kd [4] | percent of the protein in the dimer peak [5] | percent of the protein in the dimer peak [6] |
| --- | --- | --- | --- | --- | --- | --- | --- |
| Fatty acid kinase FakA (Staphylococcus aureus), wild type (enzyme) | 57% | 77% | 2 | 2 | 4.34 nM |  |  |
| FakA H282A, H284A (Staphylococcus aureus) (enzyme) |  |  |  |  |  | 24% | 63% |

Reference: article doi:10.1101/2024.03.19.585040
